Experimental data: the DeepSol protein solubility set

Assay: soluble on expression in E. coli; label from the status in PepcDB or PDB records

Row | Sequence | soluble on expression in E. coli
1 | MGHHHHHHSHMANSAGSMANSAGSMFDGISLTEHQRQQMRDLMQQARHEQPPVNVSELETMHRLVTAENFDENAVRAQAEKMANEQIARQVEMAKVRNQMYRLLTPEQQAVLNEKHQQRMEQLRDVTQWQKSSSLKLLSSSNSRSQ | not soluble
2 | MSSNAQVRPPLPPFTRESAIEKIRLAEDGWNSRDPERVSLAYTLDTQWRNRAEFAHNREEAKAFLTRKWAKELDYRLIKELWAFTDNRIAVRYAYEWHDDSGNWFRSYGNENWEFDEQGLMARRFACINDMPIKAQERKFHWPLGRRPDDHPGLSELGLLEHHHHHH | soluble
3 | GPGSATTVHGETVVNGAKLTVTKNLDLVNSNALIPNTDFTFKIEPDTTVNEDGNKFKGVALNTPMTKVTYTNSDKGGSNTKTAEFDFSEVTFEKPGVYYYKVTEEKIDKVPGVSYDTTSYTVQVHVLWNEEQQKPVATYIVGYKEGSKVPIQFKASLDSTTLTVKKKVSGTGGDRSKDFNFGLTLKANQYYKASEKVMIEKTTKGGQAPVQTEASIDQLYHFTLKDGESIKVTNLPVGVDYVVTEDDYKSEKYTTNVEVSPQDGAVKNIAGNSTEQETSTDKDMTITFTNKKVFE | soluble
4 | MRRIILIFSLLTLSLMAFGEEIKVDRSVEESITKDYDQDGVYSSYEKALRRAQESVYVKLPEKRGYWYTILDRVKAEEEELMPEEINRMRRR | not soluble
5 | GSASPTPPYLKWAESLHSLLDDQDGISLFRTFLKQEGCADLLDFWFACTGFRKLEPCDSNEEKRLKLARAIYRKYILDNNGIVSRQTKPATKSFIKGCIMKQLIDPAMFDQAQTEIQATMEENTYPSFLKSDIYLEYTRTGSESPKV | soluble
6 | MRLLVQNVHKRFGKLEALKGVSLELGAGEILGLLGPNGAGKTTLIKVVLGLLLPDGGEVVLEEGGARRRPQGHEFGVLLEGSRNLYVNLSLLVNALYFGGIRGLPPKEVRPRFEAWLERFGLKDRLHAPLASLSRGMQQKAALALALALKPRFLLLDEPTLGLDPVSRREFEGILLELKKEGWGILLTSHDLEVVERVSDRVAFLHRGEVRRQGPTRVLLREWAGEGYRVRLAEPKAEALLQALGPGWSAEGPEVLFFLGPWEALREALGAFPVEVLEVSRGTPSLEALFLHLFGEARPSPSA | soluble
7 | MSLKLVFYGAGNMAHAIFTGIVNSKVIDSNDIYLTNRSNEVALKEYAEKLGVNYSYDDEALLKAADYVFLGTKPYDFESLAERIKPFITDKNKFISIMAGLPISYIREKLEADNPIARIMPNTNAHVGHSVTGISFSSNFGPNSKDEVDELINAFGSAIEVPEDNLHQVTAITGSGPAFLYHVFEQYVTAGTRLGLEKAQVEESIRNLIIGTSKMIERSELSMEQLRKNITSKGGTTQAGLNALSQHDLESVFEDCLRAAVDRSVELSSQDEGHHHHHH | soluble
8 | MEFSIKQSPLSVQSVVKCIKMKQAPEILGSANGKTPSCEVNRECSVFLSKAQLSSSLQEGVMQKFNGHDALPFIPADKLKDLTSRVFNGEPGAHDAKLRFESQEMKGIGTPPNTTPIKNGSPEIKLKITKTYMNGKPLFESSICGDSAADVSQSEENGQKPENKARRNRKRSIKYDSLLEQGLVEAALVSKISSPSDKKIPAKKESCPNTGRDKDHLLKYNVGDLVWSKVSGYPWWPCMVSADPLLHSYTKLKGQKKSARQYHVQFFGDAPERAWIFEKSLVAFEGEGQFEKLCQESAKQAPTKAEKIKLLKPISGKLRAQWEMGIVQAEEAASMSVEERKAKFTFLYVGDQLHLNPQVAKEAGIAAESLGEMAESSGVSEEAAENPKSVREECIPMKRRRRAKLCSSAETLESHPDIGKSTPQKTAEADPRRGVGSPPGRKKTTVSMPRSRKGDAASQFLVFCQKHRDEVVAEHPDASGEEIEELLRSQWSLLSEKQRARYNTKFALVAPVQAEEDSGNVNGKKRNHTKRIQDPTEDAEAEDTPRKRLRTDKHSLRKRDTITDKTARTSSYKAMEAASSLKSQAATKNLSDACKPLKKRNRASTAASSALGFSKSSSPSASLTENELLWEPTPVKLDLNPAALYCT | soluble
9 | MRNTLKAATLESKFPLLAVEADCIISKDADITAVFEVDLPELFTVTAAEYEAIHAAWAKAIKVLPNYTVVHKQDWFIREDYRSQTDKENLSFLSRSYEMHFNERPFLNHKCYLYLTKTTKERMRMQSSFSSLCRGFIIPKEVDKDTTAHFLDTVGQFARIVNDTGLVHLRRLVGDEITGTENKAGLVEKYFCLSMENTTALEDIELGDDGLRVGDKHVSVHTLSELDALPSKVGTDCRYERLSTDKSDCKLSFASPVGLLLSCNHLYNQYIFLDDSGENLQRFEKNARNMQSLSKYSRSNQINKEWIDLYLNDAHSFGLTSVRAHCNIIAWTDNPMEVKNMRNDVGSQIAMMECKPRHNTVDAATLYWAAIPGNGADFPAEESFYTFIEQALCFWVEETNYRSSVSPFGLKMSDRISGKPLHVDISDLPMKRGVTTNRNKFVLGGSGSGKSFFMNHLARQYYEQGTHVVLIDTGNSYQGLCSLIHQKSGGKDGIYFTYTDENPIAFNPFFTDDKVFDIEKRESIKTLILTLWKKDNEPATRSEEVALSNAVSLYIRRIKEDESIVPSFNTFYEFVKTDYRRILEEKEVREKDFDLAGFLNVLEPYYRGGEYDFLLNSDKQLDLLGKRFIVFEIDQIKDHPILFPVTTIIIMELFINKMRRLKGVRKMIIIEEAWL | not soluble
10 | MVQLSLSQVHQDQIYRHGERCYPEECCGLLLGKILIGENGHRHWQVVEVQPTENCWGDVEEFQQNNHQGNKLHYFAIDPKVLLSAQKDCRQKGLSIIGIFHSHPHGQPIPSEFDRAIAWPEYIYLIASGLEHHHHHH | not soluble
11 | MIKLIATDMDGTFLAEDGTYNQEQLAALLPKLAEKGILFAVSSGRSLLAIDQLFEPFLDQIAVIAENGSVVQYRGEILFADMMTKEQYTEVAKKILANPHYVETGMVFSGQKAAYILKGASEEYIQKTKHYYANVKVINGFEDMENDAIFKVSTNFTGHTVLEGSDWLNQALPYATAVTTGFDSIDIILKEVNKGFGMEHLCQALGIKKAETIAFGDNFNDYQMLEFAGRAIATENARPEIKVISDQVIGHCNDGAVLTYLKGLV | not soluble
12 | MGIRPVNRKRLSMDKVFIEQLEVITTIGVYDWEQQIKQKLVLDLEMAHDNRAAGKSDDVADALDYAQVSQAVLEHIEQGRFLLVERVAEEVAELIMTRFAVPWLRIRLTKPGAVPQAKGVGVIIERARG | not soluble
13 | MEEETIKVENLDDSITIDRNPVPLAFCARPTLPAKIGMKTEDGIVDQLLDLVDPITVVNPTEIRQAPSLKSFGCDTESEFEFSGDDSDFENINDLRAGALDSDEEFDRLVKFSAKIIEKTHKSEYPDENGKKQRKPKKSQKTRNVHEYDDMPPLENLSIECKGQLLEFGFVSKVVDCQVVIISTCTEVLDFDSFLFDQKGNALGQIYDIFGQVKNPQYVIRFNSCEEASMIPIDMKVYYAPTEEQFSKTPFKGLNLAAANRDAIKSLNRRIDHQEAVAKAGETMAQVGIGSDVEFSDDEAEKEFKRTTYTQPASQMSRGFDSNRGRKRDRRGGQKVRFSAQNPPARSDNLGPIPQQPSAPPPPARPAQSTESNPYAEFGCHSGFNGRFGI | not soluble
14 | MGSDKIHHHHHHNNDDDGTNKAQEIAGKYEGYSIGNCAMFTDYVMGEKSVATIVPNEDGTINVTYDSGSGEFKLNNIKVTSKTFEGSGQVELSMNDKPAGAKDFTLTGSIDEQQKLTLKVNVPSVMGGLTIEFIQGTLPISYHVSGTYNKEANLSVSVGSTTYPDITDCKVSIKRSSDDTVELTLKGLSNLNSSQTGRAMNLGDFTVTDVKVTSTDNSIFKIEGSINTTDTNNTPITGTLSGTVSNSETNITFTFKPGAMPIDITAMFKGKK | not soluble
15 | MRVVAIGVGGAGGRIVDALHEDDSTREASYLAGGSVLETDRGALAALDAVSEEDRHHFGHSGFGGDADSPRERIEALAEDDHVEMRRAVDSAITSDAAAIIVIAGVGGATGSVIAPKLTDALQRIYDRPVYAVSVLPATHEEVPPENPARAIAAFESAANAQLVFDNDAWVDDRNDVEDVTDGLNAELAMRLGALFSAGEAVTAESVGQRVVDASEVISTLDEGGLATIGFARQPLGTDGDDGSLLDRARELVGMDETTVDEVESIKAVETTLRQATNGRLTFDCPRDAARSGLLVVSGPPEWLHQTAVSDGQSWLADEIGSVQLRTGDNPMPGGDELTILVLLGGIRGAPRIKEIQAATDLEHHHHHH | soluble
16 | GKRSERQQADMEMMKDRFAKLLLGEDMSGGGKGVSSALALSNAITNLAASIFGEQTKLQPMPQDRQARWKKEIDWLLSVTDHIVEFVPSQQTSKDGVCTEIMVTRQRGDLLMNIPALRKLDAMLIDTLDNFRGHNEFWYVSRDSEEGQQARNDRTNDKWWLPPVKVPPGGLSEPSRRMLYFQKDSVTQVQKAAMAINAQVLSEMEIPESYIDSLPKNGRASLGDSIYKSITEEWFDPEQFLAMLDMSTEHKVLDLKNRIEASVVIWKRKLHTKDTKSSWGSAVSLEKRELFEERAETILVLLKQKFPGLPQSSLDISKIQFNKDVGQAVLESYSRILESLAYTVMSRIEDVLYTDTLALKQTLLA | soluble
17 | FQRSTPAITLESPDIKYPLRLIDREIISHDTRRFRFALPSPQHILGLPVGQHIYLSARIDGNLVVRPYTPISSDDDKGFVDLVIKVYFKDTHPKFPAGGKMSQYLESMQIGDTIEFRGPSGLLVYQGKGKFAIRPDKKSNPIIRTVKSVGMIAGGTGITPMLQVIRAIMKDPDDHTVCHLLFANQTEKDILLRPELEELRNKHSARFKLWYTLDRAPEAWDYGQGFVNEEMIRDHLPPPEEEPLVLMCGPPPMIQYACLPNLDHVGHPTERCFVF | soluble
18 | MKMNNTKEYSIRTPSLGNLPPGTTGTCCPPPLVFPLLPLSPPPSPPPSPSSPPRLPPPFPALFPPEPPLPPRFELPPPLFPPPPLPRLPPPLLPPPEEPPREPPPPPPPPEEPPPPASCLRTKSPENGIVSTVK | not soluble
19 | MTRQHSTQPDPKLDLVLERTIDVPPALVWQAWTQPEHIKHWLTPAPWQTVRCDVDLRPGGRFRFVMRSPEGEEHTHDCCYLEIVEGSRLVWTNALLPGFRPAGGGGDVPAFTAVIRIEPHDQGTRYTATAMHGTQAGCRQHSDMGFHDGWGAALDQLVAHARNMQQASLEHHHHHH | soluble
20 | MTAMDHQFPSWIVVNESTSISREQLNYLLETYNVFYENQKNLHILYGQTEDGQLIVEGMLDIFWGVKRPIQLKIQDEKQISSFDLLNTPETFSSKGRMTRWGEFDDLYRISELDRTHVLASEARHSPEDYLSYHSTLTPYADEEPESPLLYRTMSEAESPLLYRTMSEAALVRKRMRAPEMYRKDRMGVLSNHRASINGHVYDHETSIFTPTFGSETKVRANSIMRTEEVIKQLLQKFKIENSPRDFALYIIFGTGEQRKLKKTDVPLLQRLLQGPSKSNARIFLMDKDAEEISRDVAPYINFHFSFLESILQRLDEEEKMEIERIMAKFNTERAFILKCLQSKQAAKTETTV | soluble
21 | ISLKYTAARLHEKGVLLEIEDLQVNQFKNVIFEISPTEEVGDFEVKAKFMGVQMETFMLHYQDLLQLQYEGVAVMKLFDRAKVNVNLLIFLLNKKFYGK | soluble
22 | MIIPEYGRTLTPEEWRPVVDEMLEATHIIFTTHENSDGDGLGSQVALALALKALGKEVAIFNPTEVPPNYLFLKELHEINLFRDRDEESMQEFFLADLLVVLDANLHDRIGRLWPHVEFARQMSRLKVLCIDHHLEPEDFADITVCETYASSTGELVCDLVTALELRTGQQLFTPEVASALYAAIMTDTGSFRFPKTTPYTYRLAGMLVEKGADPELVYDRIYNALTPEALKLLGLSLSNIKIIENGLISWLFITQEMLEQTGSKLFDTDLIIRYLLSVPTVKVAVLLVEMQDGRCKVSFRSRGKIYVNQLAKHYGGGGHMNAAGCLLRMSAEKAQLVILEDVRKFTLEQVDS | soluble
